Tests used:
[1] = Monoterpene synthase assay and product identification with extracts of E. coli expressing Grand fir cDNA clones (Example 3); format: biochemical
Method: For expression, bacterial strains E. coil XLOLR/pAG3.18, E. coil XLOLR/pAG3.48, E. coli XL1-Blue/pGAG2.2, E. coli XL1-Blue/pGAG3.18, and E. coil BL21(DE3)/pSBAG10were grown to A600=0.5 at 37° C. in 5 ml of LB medium (Sambrock, J., Fritsch, E. F., and Maniatis, T. (1989) Molecular Cloning: A Laboratory Manual, 2d Ed., Cold Spring Harbor Laboratory, Cold Spring Harbor, N.Y.) supplemented with 100 μg ampicillin/ml or 30 μg kanamycin/ml as determined by the vector. Cultures were then induced by addition of 1 mM isopropyl-1-thio-β-D-galactopyranoside and grown for another 12 h at 20° C. Cells were harvested by centrifugation (2000×g, 10 min) and resuspended in either 1 ml monoterpene synthase assay buffer [50 mM Tris/HCl (pH 7.5), 500 mM KCl, 1 mM MnCl2, 5 mM dithiothreitol, 0.05% (w/v) NaHSO3 and 10% (v/v) glycerol], 1 ml sesquiterpene synthase assay buffer [10 mM dibasic potassium phosphate, 1.8 mM monobasic potassium phosphate (pH 7.3), 140 mM NaCl, 10 mM MgCl2, 5 mM dithiothreitol, 0.05% (w/v) NaHSO3 and 10% (v/v) glycerol], or 1 ml diterpene synthase assay buffer [30 mM Hepes (N-2-hydroxyethylpiperazine-N-′2-ethanesulfonic acid, pH 7.2), 7.5 mM MgCl2, 5 mM dithiothreitol, 10 µM MnCl2, 0.05% (w/v) NaHSO3 and 10% (v/v) glycerol].
Cells were disrupted by sonication (Braun-Sonic 2000 with microprobe at maximum power for 15 seconds at 0-4° C.), the homogenates were cleared by centrifugation (18,000×g, 10 min), and 1 ml of the resulting supernatant was assayed for monoterpene synthase activity with 2.5 μM of [1-^3H]geranyl diphosphate, for sesquiterpene synthase activity with 3.5 μM [1-^3H]farnesyl diphosphate, or for diterpene synthase activity with 5 μM [1- ^3H]geranylgeranyl diphosphate following standard protocols (Croteau, R., and Cane, D. E. (1985) Methods Enzymol. 110:383-405; LaFever, R. E., Stofer Vogel, B., and Croteau, R. (1994) Arch. Biochem. Biophys. 313:139-149; Dehal, S. S., and Croteau, R. (1988) Arch. Biochem. Biophys. 261:346-356). In the case of the monoterpene synthase and sesquiterpene synthase assays, the incubation mixture was overlaid with 1 ml pentane to trap volatile products. In all cases, after incubation at 31° C. for 2 h, the reaction mixture was extracted with pentane (3×1 ml) and the combined extract was passed through a 1.5 ml column of anhydrous MgSO4 and silica gel (Mallinckrodt 60 Å) to provide the terpene hydrocarbon fraction free of oxygenated metabolites. The columns were subsequently eluted with 3×1 ml of ether to collect any oxygenated products, and an aliquot of each fraction was taken for liquid scintillation counting to determine conversion rate.
Product Identification—To obtain sufficient product for analysis by radio-GLC (gas liquid chromatography), chiral capillary GLC and GLC-MS (mass spectrum/spectrometry), preparative-scale enzyme incubations were carried out. Thus, the enzyme was prepared from 50 ml of cultured bacterial cells by extraction with 3 ml of assay buffer as above, and the extracts were incubated with excess substrate overnight at 31° C. The hydrocarbon fraction was isolated by elution through MgSO4-silica gel as before, and the pentane eluate was concentrated for evaluation by capillary radio-GLC as described (Croteau, R., and Satterwhite, D. M. (1990) J. Chromatogr. 500:349-354), by chiral column capillary GLC (Lewinsohn, E., Savage, T. J., Gijzen, M., and Croteau, R. (1993) Phytochem. Anal. 4:220-225), and by combined GLC-MS [Hewlett-Packard 6890 GC-MSD with cool (40° C.) on-column injection, detection via electron impact ionization (70 eV), He carrier at 0.7 psi., column:0.25 mm i.d.×30 m fused silica with 0.25 μm film of 5MS (Hewlett-Packard) programmed from 35° C. (5 min hold) to 230° C. at 5° C./min].

[2] = Bohlmann et al. 1997; cited from earlier work

B1: AG3.18: recombinant (−)-pinene synthase from Grand fir encoded by cDNA clone AG3.18 (SEQ ID NO:3; protein SEQ ID NO:4) (protein, listed as Abies grandis)
chain: MALVSTAPLASKSCLHKSLISSTHELKALSRTIPALGMSRRGKSITPSISMSSTTVVTDDGVRRRMGDFHSNLWDDDVIQSLPTAYEEKSYLERAEKLIGEVKNMFNSMSLEDGELMSPLNDLIQRLWIVDSLERLGIHRHFKDEIKSALDYVYSYWGENGIGCGRESVVTDLNSTALGLRTLRLHGYPVSSDVFKAFKGQNGQFSCSENIQTDEEIRGVLNLFRASLIAFPGEKIMDEAEIFSTKYLKEALQKIPVSSLSREIGDVLEYGWHTYLPRLEARNYIQVFGQDTENTKSYVKSKKLLELAKLEFNIFQSLQKRELESLVRWWKESGFPEMTFCRHRHVEYYTLASCIAFEPQHSGFRLGFAKTCHLITVLDDMYDTFGTVDELELFTATMKRWDPSSIDCLPEYMKGVYIAVYDTVNEMAREAEEAQGRDTLTYAREAWEAYIDSYMQEARWIATGYLPSFDEYYENGKVSCGHRISALQPILTMDIPFPDHILKEVDFPSKLNDLACAILRLRGDTRCYKADRARGEEASSISCYMKDNPGVSEEDALDHINAMISDVIKGLNWELLKPDINVPISAKKHAFDIARAFHYGYKYRDGYSVANVETKSLVTRTLLESVPL
prenyl diphosphate substrate utilized (geranyl, farnesyl, geranylgeranyl diphosphate tested) ([1]; cell-free extract of induced E. coli, tritium labeled substrates): only geranyl diphosphate was utilized
α-pinene share of product mixture from geranyl diphosphate ([1]; cell-free extracts of E. coli): 42%
β-pinene share of product mixture from geranyl diphosphate ([1]; cell-free extracts of E. coli): 58%
monoterpene products formed from geranyl diphosphate ([1]; radio-GLC, GLC-MS, chiral GLC): No other monoterpene co-products were detected
(−)-enantiomer share of the α-pinene formed [2]: more than 99%
